Measurements taken from the supplement of paper PMC11246515.
± gives the standard deviation of the averaged measurements.

Test: total protein half-life in vivo (active degradation + dilution); higher = more stable protein
[1] = E. coli NCM3722 delta-clpP delta-lon delta-hslV, growth: N-lim chemostat, doubling time 6 h
[2] = E. coli NCM3722 delta-clpP, growth: N-lim chemostat, doubling time 6 h
[3] = E. coli NCM3722 delta-hslV, growth: N-lim chemostat, doubling time 6 h
[4] = E. coli NCM3722 delta-lon, growth: N-lim chemostat, doubling time 6 h
[5] = E. coli NCM3722 delta-smpB, growth: N-lim chemostat, doubling time 6 h
[6] = wild type E. coli NCM3722, growth: C-lim chemostat, doubling time 3 h
[7] = wild type E. coli NCM3722, growth: C-lim chemostat, doubling time 6 h
[8] = wild type E. coli NCM3722, growth: C-lim chemostat, doubling time 12 h
[9] = wild type E. coli NCM3722, growth: N-lim chemostat, doubling time 6 h
[10] = wild type E. coli NCM3722, growth: N-lim chemostat, doubling time 12 h
[11] = wild type E. coli NCM3722, growth: P-lim chemostat, doubling time 6 h
[12] = wild type E. coli NCM3722, growth: P-lim chemostat, doubling time 12 h

Sequence	total protein half-life in vivo [1] [h]	total protein half-life in vivo [2] [h]	total protein half-life in vivo [3] [h]	total protein half-life in vivo [4] [h]	total protein half-life in vivo [5] [h]	total protein half-life in vivo [6] [h]	total protein half-life in vivo [7] [h]	total protein half-life in vivo [8] [h]	total protein half-life in vivo [9] [h]	total protein half-life in vivo [10] [h]	total protein half-life in vivo [11] [h]	total protein half-life in vivo [12] [h]
MLELNFSQTLGNHCLTINETLPANGITAIFGVSGAGKTSLINAISGLTRPQKGRIVLNGRVLNDAEKGICLTPEKRRVGYVFQDARLFPHYKVRGNLRYGMSKSMVDQFDKLVALLGIEPLLDRLPGSLSGGEKQRVAIGRALLTAPELLLLDEPLASLDIPRKRELLPYLQRLTREINIPMLYVSHSLDEILHLADRVMVLENGQVKAFGALEEVWGSSVMNPWLPKEQQSSILKVTVLEHHPHYAMTALALGDQHLWVNKLDEPLQAALRIRIQASDVSLVLQPPQQTSIRNVLRAKVVNSYDDNGQVEVELEVGGKTLWARISPWARDELAIKPGLWLYAQIKSVSITA	5.74 ± 0.84	6.32 ± 1.6	6.25 ± 0.98	5.26 ± 0.55	5.04 ± 0.092	2.76 ± 0.18	5.77 ± 0.64	11 ± 1.2	5.676 ± 0.014	10.2 ± 1.3	6.12 ± 0.077	–
MTTFHSLTVAKVESETRDAVTITFAVPQPLQEAYRFRPGQHLTLKASFDGEELRRCYSICRSYLPGEISVAVKAIEGGRFSRYAREHIRQGMTLEVMVPQGHFGYQPQAERQGRYLAIAAGSGITPMLAIIATTLQTEPESQFTLIYGNRTSQSMMFRQALADLKDKYPQRLQLLCIFSQETLDSDLLHGRIDGEKLQSLGASLINFRLYDEAFICGPAAMMDDAETALKALGMPDKTIHLERFNTPGTRVKRSVNVQSDGQKVTVRQDGRDREIVLNADDESILDAALRQGADLPYACKGGVCATCKCKVLRGKVAMETNYSLEPDELAAGYVLSCQALPLTSDVVVDFDAKGMA	4.66 ± 0.67	–	–	–	–	–	–	–	–	–	–	–
MEYQHWLREAISQLQASESPRRDAEILLEHVTGRGRTFILAFGETQLTDEQCQQLDALLTRRRDGEPIAHLTGVREFWSLPLFVSPATLIPRPDTECLVEQALARLPEQPCRILDLGTGTGAIALALASERPDCEIIAVDRMPDAVSLAQRNAQHLAIKNIHILQSDWFSALAGQQFAMIVSNPPYIDEQDPHLQQGDVRFEPLTALVAADSGMADIVHIIEQSRNALVSGGFLLLEHGWQQGEAVRQAFILAGYHDVETCRDYGDNERVTLGRYYQ [P0ACC1]	4.72 ± 1.1	3.88	3.35	4.15 ± 0.14	3.23	–	5.5 ± 0.85	9.85	–	5.79 ± 0.26	5.35 ± 0.41	9.69 ± 0.87
MLYVIYAQDKADSLEKRLSVRPAHLARLQLLHDEGRLLTAGPMPAVDSNDPGAAGFTGSTVIAEFESLEAAQAWADADPYVAAGVYEHVSVKPFKKVF [P0AB55]	5.05 ± 0.14	4.751 ± 0.018	4.51 ± 0.13	5.1 ± 0.41	5.34 ± 1	–	4.96 ± 0.49	9.37	–	7.02 ± 0.86	6	–
MRKLTALFVASTLALGAANLAHAADTTTAAPADAKPMMHHKGKFGPHQDMMFKDLNLTDAQKQQIREIMKGQRDQMKRPPLEERRAMHDIIASDTFDKVKAEAQIAKMEEQRKANMLAHMETQNKIYNILTPEQKKQFNANFEKRLTERPAAKGKMPATAE	–	3.6	–	4.86 ± 2.6	4.4 ± 1.1	2.63	4.54 ± 0.28	8.06 ± 4.6	–	1.93	3.86 ± 0.27	6.54 ± 0.43
MPYKTKSDLPESVKHVLPSHAQDIYKEAFNSAWDQYKDKEDRRDDASREETAHKVAWAAVKHEYAKGDDDKWHKKS [P0AE63]	6.81 ± 0.52	4.36 ± 0.59	–	5.1 ± 0.19	5.01 ± 2.3	–	5.53	6.09	3.3 ± 0.35	6.77 ± 0.7	4.41	7.39 ± 1.7
MTIAIVIGTHGWAAEQLLKTAEMLLGEQENVGWIDFVPGENAETLIEKYNAQLAKLDTTKGVLFLVDTWGGSPFNAASRIVVDKEHYEVIAGVNIPMLVETLMARDDDPSFDELVALAVETGREGVKALKAKPVEKAAPAPAAAAPKAAPTPAKPMGPNDYMVIGLARIDDRLIHGQVATRWTKETNVSRIIVVSDEVAADTVRKTLLTQVAPPGVTAHVVDVAKMIRVYNNPKYAGERVMLLFTNPTDVERLVEGGVKITSVNVGGMAFRQGKTQVNNAVSVDEKDIEAFKKLNARGIELEVRKVSTDPKLKMMDLISKIDK	6.3 ± 0.43	6.46 ± 1.2	–	6.12 ± 0.73	5.94 ± 0.051	3.14 ± 0.049	6.91 ± 0.14	13 ± 0.89	5.95 ± 0.48	12 ± 0.24	6.111 ± 0.044	14.3 ± 0.52
